From patent US20190367606A1 (CENTRE FOR DRUG RESEARCH AND DEVELOPMENT, published 2019)

Legend:
human podocalyxin [1] = target: T1, human podocalyxin (human, UniProt O00592 23-558); experiment: flow cytometry, supernatant 1:5, MDA-MB-231 cells
T1 construct: also called hPodo; hPodocalyxin
T1 sequence: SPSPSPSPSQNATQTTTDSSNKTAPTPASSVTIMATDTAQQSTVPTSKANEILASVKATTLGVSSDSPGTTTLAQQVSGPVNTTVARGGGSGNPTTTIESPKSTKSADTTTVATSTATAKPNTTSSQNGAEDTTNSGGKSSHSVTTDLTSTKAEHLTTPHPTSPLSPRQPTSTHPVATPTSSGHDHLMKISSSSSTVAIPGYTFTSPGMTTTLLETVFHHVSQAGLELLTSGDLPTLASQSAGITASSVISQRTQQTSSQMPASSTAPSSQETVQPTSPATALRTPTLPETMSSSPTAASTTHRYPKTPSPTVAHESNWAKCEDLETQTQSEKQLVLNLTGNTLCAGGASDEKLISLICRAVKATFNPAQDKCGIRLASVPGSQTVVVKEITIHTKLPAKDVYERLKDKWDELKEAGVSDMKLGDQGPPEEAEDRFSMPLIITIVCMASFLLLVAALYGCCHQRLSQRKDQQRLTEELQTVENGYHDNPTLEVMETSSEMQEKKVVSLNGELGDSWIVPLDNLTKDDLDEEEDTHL
Protocol: (§1) The following antibodies were transiently transfected in 293HEK cells, transfected cells were incubated for 96 hours, antibody containing supernatant was then serially titrated in FACS sample buffer. The following supernatants were used as test samples:
(§2) MDA transient transfectants were established as essentially described above in Example 1. MDA transient transfectants and MDA-MB-231 cells were seeded in 96-well v bottom plates at 75,000 cells/well. Cells were pelleted by centrifugation at 400 g for 3 min. Supernatant was removed. The cell pellets were resuspended in 20 μl of the antibody or control supernatants. The plate was incubated on ice for 1 hour.
(§3) The cells were washed by adding 200 μl FACS buffer to dilute unbound antibody. The plate was centrifuged at 400 g for 3 min to pellet cells. The supernatant was removed and repeated. The cell pellets were resuspended in 25 μl of either goat anti-Hu IgG Fc-Alexa647, goat anti-Mouse IgG Fc-Alexa647, or goat anti-rabbit IgG0Fc-A647 (2 μg/ml) and 7A.A.D (2.5 μg/ml). The plates were incubated on ice for 0.5 hours. The wash procedure was again repeated 2×. The cell pellets were finally resuspended in 75 μl FACS buffer and read on the HTFC™ Screening System (IntelliCyt Corporation) (3 sec sip, 1.5 up time) and analyzed on the HyperView® software (IntelliCyt Corporation).

human podocalyxin [2] = target: T1, human podocalyxin; experiment: flow cytometry, supernatant 2:15 (so in the source), MDA-MB-231 cells
Protocol: as §1, §2, §3

human podocalyxin [3] = target: T1, human podocalyxin; experiment: flow cytometry titration on 293-6E cells (endogenous podocalyxin), 24 hours at 4 C
Protocol: (§4) The affinities of huPodo 83 1:1 and huPodo 83 2:1 antibodies were determined against endogenously expressed podocalyxin on 293 HEK cells. 293-6E cells were seeded in 96-well v bottom plates at 100,000 cells/well. The cells were pelleted at 400 g for 3 min and the supernatant was discarded. The cells were placed on ice and antibody 1:3 titrations were prepared using ice cold medium. The cells were resuspended in the prepared antibody titrations at 25 μl/well and incubated at 4° C. for either 24 or 48 hours. 200 μl 1% FBS/PGS (FACS buffer) was added to each well. The cells were pelleted at 400 g for 3 min and supernatant removed. The wash was repeated 2 more times. The cells were resuspended in goat anti-human IgGFc-A647 (2 μg/ml)+2.5 μg/ml 7AAD and incubated on ice for 30 min. The cells were washed as above and resuspended in 50 μl FACS buffer. The cells were analyzed by flow cytometry using the HTFC™ Screening System (IntelliCyt Corporation) (3 sec sip, 1.5 sec up) and the C6 cytometer (Becton Dickenson).

human podocalyxin [4] = target: T1, human podocalyxin; experiment: flow cytometry, supernatant Neat, hPodo/MDA-MB-231 transient transfectants
Protocol: as §1, §2, §3

human podocalyxin [5] = target: T1, human podocalyxin; experiment: kinetic exclusion assay (KinExA 3200), MDA-MB-231 cells
Protocol: The concentration dependence of free anti-podocalyxin antibody as a function of MDA-MB231 cell number was determined using a KinExA 3200 instrument (Sapidyne Instruments). Briefly, MDA-MB-231 cells, which express endogenous podocalyxin, were titrated 1:2 from 10×10⁶ cells/mL down 12 steps, and incubated with a fixed concentration of anti-podocalyxin antibodies. MDA-MB231 cells and cell bound antibodies were then isolated by centrifugation. Supernatant containing free, unbound antibody was then transferred to a new tube. The supernatant containing free unbound antibody was passed over the column containing PMMA beads coated with a goat anti-IgG-Fc capture antibody. The amount of free antibody captured on the PMMA beads was then measured using a goat anti-IgG-Fc-A647. This process was repeated for every cell concentration. For each sample assayed a new column of PMMA beads with the goat anti-IgG-Fc capture antibody was packed. The concentration of free antibody over the entire 12 step dilution series was then used to determine the antibody Kd's using the standard Kd template in the KineExA Pro Software (Sapidyne Instruments).

human podocalyxin [6] = target: T1, human podocalyxin; experiment: kinetic exclusion assay (KinExA 3200), A172 cells
human podocalyxin [7] = target: T1, human podocalyxin; experiment: flow cytometry, supernatant 2:15 (so in the source), hPodo/MDA-MB-231 transient transfectants
Protocol: as §1, §2, §3

human podocalyxin [8] = target: T1, human podocalyxin; experiment: flow cytometry, supernatant 1:125, MDA-MB-231 cells
Protocol: as §1, §2, §3

human podocalyxin [9] = target: T1, human podocalyxin; experiment: flow cytometry, supernatant Neat, MDA-MB-231 cells
Protocol: as §1, §2, §3

human podocalyxin [10] = target: T1, human podocalyxin; experiment: flow cytometry, supernatant 1:125, hPodo/MDA-MB-231 transient transfectants
Protocol: as §1, §2, §3

human podocalyxin [11] = target: T1, human podocalyxin; experiment: flow cytometry titration on 293-6E cells (endogenous podocalyxin), 48 hours at 4 C
Protocol: as §4

human podocalyxin [12] = target: T1, human podocalyxin; experiment: flow cytometry, supernatant 1:5, hPodo/MDA-MB-231 transient transfectants
Protocol: as §1, §2, §3

B1: Rb/Hu Podo83 (Podo83 rabbit VH and VL, human IgG1 chimera) (antibody, V domains shown)
VH: QSLAESGGRLVTPGTPLTLTCTASGIDLSSYAMGWVRQAPGKGLEYIGFIYASGSIFYASWAKGRFTISKTSSTTVDLKMTSLTTEDTATYFCARAGYYFGGNYDLNLWGQGTLVTVSS
VL: DIVLTQTPASVEVAVGGTVTIKCQASQSISNYLAWYQRKPGQPPRLLIYRASTLASGVSSRFKGSGSGTQFTLTISGVECADAATYYCQQGYVSNNLDNIFGGGTEVVVK
notes: Rabbit variable domains cloned into human IgG1 and human Ig kappa constant region constructs (pTT5/IgG1, pTT5/Igk); also called anti-PODO; Ab-1
flow cytometry fluorescence (name not given) (human podocalyxin [1]): 121000
flow cytometry fluorescence (name not given) (human podocalyxin [2]): 102000
IC50 (human podocalyxin [3]): 0.0295 µg/mL
flow cytometry fluorescence (name not given) (human podocalyxin [4]): 79000
Kd (human podocalyxin [5]): 45.6 pM
Kd (human podocalyxin [6]): 103 pM
flow cytometry fluorescence (name not given) (human podocalyxin [7]): 155000
flow cytometry fluorescence (name not given) (human podocalyxin [8]): 50600
flow cytometry fluorescence (name not given) (human podocalyxin [9]): 143000
flow cytometry fluorescence (name not given) (human podocalyxin [10]): 58500
IC50 (human podocalyxin [11]): 0.0305 µg/mL
flow cytometry fluorescence (name not given) (human podocalyxin [12]): 99300
